In the assay the target is human transferrin receptor 1 (human) (UniProt P02786). Briefly: Carterra LSA SPR array, IgG captured on anti-IgG lawn, hTfR1 as analyte, 25 C, 1:1 Langmuir fit.

This is an account of results in patent publication US20230144436A1, “MUSCLE TARGETING COMPLEXES AND USES THEREOF FOR TREATING MYOTONIC DYSTROPHY” (Dyne Therapeutics, Inc., priority 2020, published 2023).

Chain of human transferrin receptor 1 (human) (P02786 89-760 limits assumed): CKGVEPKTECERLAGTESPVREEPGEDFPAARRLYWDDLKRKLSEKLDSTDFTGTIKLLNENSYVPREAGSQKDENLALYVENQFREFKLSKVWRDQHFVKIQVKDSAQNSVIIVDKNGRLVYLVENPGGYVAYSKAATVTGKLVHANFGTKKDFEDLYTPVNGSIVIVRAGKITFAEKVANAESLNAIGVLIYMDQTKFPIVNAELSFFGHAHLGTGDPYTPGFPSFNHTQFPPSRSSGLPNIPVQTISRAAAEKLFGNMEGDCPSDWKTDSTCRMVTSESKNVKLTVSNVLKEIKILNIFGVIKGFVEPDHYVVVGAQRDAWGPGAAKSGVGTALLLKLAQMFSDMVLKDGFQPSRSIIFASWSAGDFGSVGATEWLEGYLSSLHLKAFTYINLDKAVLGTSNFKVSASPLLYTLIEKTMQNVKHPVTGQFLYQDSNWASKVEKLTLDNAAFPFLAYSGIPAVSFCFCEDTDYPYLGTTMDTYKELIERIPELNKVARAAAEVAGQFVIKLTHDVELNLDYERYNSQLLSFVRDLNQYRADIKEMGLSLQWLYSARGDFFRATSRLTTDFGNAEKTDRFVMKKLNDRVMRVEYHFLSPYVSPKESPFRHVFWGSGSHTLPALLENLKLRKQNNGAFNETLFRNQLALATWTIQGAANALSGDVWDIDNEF

For orientation: Kd means the equilibrium constant for the complex coming apart. A lower Kd goes with tighter binding. The term kon denotes a measure of how fast the partners come together. The low end stands for slower complex formation, the high end for faster complex formation. The substance OKT9 (antibody) yielded a Kd of 0.536 nM and an association rate constant (kon) of 774000 M⁻¹ s⁻¹.
